# Measured values taken from the DeepSol protein solubility set.
# Experiment: soluble on expression in E. coli; label from the status in PepcDB or PDB records
row,Sequence,soluble on expression in E. coli
1,MLRQWWLRSVGSCSTVYRAHSGCSTSAAVKPKRAIPTDGLQLSDFIKESTKKQRQKAIIPSIEDTKEYLNPEDLQGNGRTVCYVTYGCQMNVSDMEIVRSIMTKYGFVESDKKENADIVLLMTCSIRDGAEKKVWNQLKLIRSNSVNKGQIVGVLGCMAERVRHDLLEKRNLVNIVAGPDSYRDLPRLVAVAAGGSNGINVQLSLDETYADVQPIRVDSASKTAFISIMRGCDNMCTYCVVPFTRGRERSRPIESIVEEVQRLRDQGYKQVTLLGQNVNSYRDMTSMDFSMAPSTSQEDRVPGFKTVYKPKSGGLTFTTLLEKVADAAPDIRFRFTSPHPKDFPMQLIELIASRPNLCKQLHLPAQSGDDETLERMERGYTRDLYLRLVDDIRHVLPSVSLTSDFIAGFCGETEQAHQNTLSLIRAVRYSFCFVFPYSMRGKTRAHHRLTDDVPEDVKARRHLDLTTVFREEALKLNQALIGSEQTVLLEGKSKRDASFSHGRIDGGVKAVFDNSKLCLEPGQYAKILITDANSQTLKAQLIGQSSI,not soluble
2,MLRRTLHCCTAVRHTSVPSFMQHPVEMAFYFPRFHPDTHVNAAGIPELIDAVGLMTRHSRSSRAESTASASTSAAESAMSRALPPTRWTTTVSATAQPTTDASVVEAQKDNAKSLLLLERGIDILNSVGGVRNPTVANLLRPLYAARFEMLNGSEHLPRSEYAKRMHVHKAILQQAAPLLYYDAWDKSDVHQLDTSCVLVGHFMKAFCALHPRPFHPVAAPATSGGAGSSQASSTTTTASSSSSSNSNSNVTSSSSAQSTPKGAFNPAEWKMAVGDDGEGAYLTLSIVQDRVEELLRLATAAYDKHGSTHPELRWLRPKLLVLKGLLTIPLTGHLLHAQRCIEEAAHYVDALTKRTNLLLDGLKERTHEPELGLYMLLQAEIAARVFDWDVAPGQVDGDVVNMFTDAAGYYADPPNTTLDGDAIMSERKLAEQRFEVEAYACCLRSYAAFLLGASRPEATSTRDSPVFLAKQLFSLNPLLTVATSSSLIFSDVRNVSELPLDMCRRRTGEALDRALKLNRMLYPDFRQNAPAAATLMTMACMYADTRDYLYATGLFESANKAVTYNFGDTSLEHVFLQKLRYEFLAGVGSEQEAKTASHEVVHLLKRIDALPC,soluble
3,MLRVLSRQAFSMVRAANFSASASSAGGGGLSDEVRKRIDGIVKKDDVVVFMKGTQQEPACGFSRNVKLVLDFHNVKFQDYNVLTDQELREGVKIFSEWPTIPQVYVKGEFVGGCDILISMHKDGEISDFLDEKGISNKYGKQ,not soluble
4,MLRWITAGESHGRALVAVVEGMVAGVHVTSADIADQLARRRLGYGRGARMTFERDAVTVLSGIRHGSTLGGPIAIEIGNTEWPKWETVMAADPVDPAELADVARNAPLTRPRPGHADYAGMLKYGFDDARPVLERASARETAARVAAGTVARAFLRQALGVEVLSHVISIGASAPYEGPPPRAEDLPAIDASPVRAYDKAAEADMIAQIEAAKKDGDTLGGVVEAVALGLPVGLGSFTSGDHRLDSQLAAAVMGIQAIKGVEIGDGFQTARRRGSRAHDEMYPGPDGVVRSTNRAGGLEGGMTNGQPLRVRAAMKPISTVPRALATVDLATGDEAVAIHQRSDVCAVPAAGVVVETMVALVLARAALEKFGGDSLAETQRNIAAYQRSVADREAPAARVSGHHHHHH,soluble
5,MLRWIVLICISLFLPLSAYADKSDCINHHCIAVIDAGSSSSRLHIYAYDLDETNTPIAIREIWNRKAVPGLPTIEHENKSVSAYMEKLFSDAPAVLMPVYFYSTAGMRLLPKTHHRNVNQLVAEWFDRQYYWRLVTARTISGTEEGIFAWLATNYQLNLFQQEPQTLAGVMDIGGASVQIVIPVVNPSFMDHEHTTTIRLYGKEFTVFSHSFLGLGQNEMGHQFFDLKFCFPEEYELPSGRQARGDAYACKDEIAILVNSVHSVSRKIKSVLAANPIEKWYILGGITFMLNDKLFSLDNQYFTNRDLISYADQNICHQKWSTLEVLYPDNLMVFNYCMLPSYLYALLVHGYGLKSYQKVNFMPNSKNIDWTLGVVLQHKQSAAALEHHHHHH,not soluble
6,MLSARYLHLHEALGLGPMWLKQAAAVLPPKNTPAPSAQARPQTVRAAPIRPSQPHNGQARLETMKALETAAVPTRKPAPETETPLPGLSDGIAPVPAASGITKLAVVSLCPPIEDAVYGQLFHGKAGILLDNILKAVGLDAAYVHKTCWVKTAAVGNPMPSEQAVANALGQIARELDGCRAPAVLFLGQAFVQPERQTMIETLCGSRPFFIIDHPARLLRQPELKARAWQVLKQLKRALRQGGGS,not soluble
7,MLSEVLLVSAPGKVILHGEHAVVHGKVALAVSLNLRTFLRLQPHSNGKVDLSLPNIGIKRAWDVARLQSLDTSFLEQGDVTTPTSEQVEKLKEVAGLPDDCAVTERLAVLAFLYLYLSICRKQRALPSLDIVVWSELPPGAGLGSSAAYSVCLAAALLTVCEEIPNPLKDGDCVNRWTKEDLELINKWAFQGERMIHGNPSGVDNAVSTWGGALRYHQGKISSLKRSPALQILLTNTKVPRNTRALVAGVRNRLLKFPEIVAPLLTSIDAISLECERVLGEMGEAPAPEQYLVLEELIDMNQHHLNALGVGHASLDQLCQVTRARGLHSKLTGAGGGGCGITLLKPGLEQPEVEATKQALTSCGFDCLETSIGAPGVSIHSATSLDSRVQQALDGL,soluble
8,MLSFTSRLKKDLFIKAQSLVPQHQLSRVVGKVAESENILIKAAVIQAFKTKYGIDLSIAEQADALKYKSFNEFFTRALKEGVRVVDSATGSIVSPADGAISQLGTIHDGEVFQAKGQSFSVEKLIGDPQLAQPFKQGQFATVYLSPRDYHRVHMPFTGTLTETLYIPGELFSVNQVTAENIPGLFARNERMVCLFDTELGRMAVVLVGAMIVAGIETVVTGKVKPTGRLELNHHDVTLQKGDELGRFYLGSTAIILFEKDKMVWDQQFKANSIVVMGEKLGQSTNPLEHHHHHH,not soluble
9,MLSRHINYFLAVAEHGSFTRAASALHVSQPALSQQIRQLEESLGVPLFDRSGRTIRLTDAGEVWRQYASRALQELGAGKRAIHDVADLTRGSLRIAVTPTFTSYFIGPLMADFYARYPSITLQLQEMSQEKIEDMLCRDELDVGIAFAPVHSPELEAIPLLTESLALVVAQHHPLAVHEQVALSRLHDEKLVLLSAEFATREQIDHYCEKAGLHPQVVIEANSISAVLELIRRTSLSTLLPAAIATQHDGLKAISLAPPLLERTAVLLRRKNSWQTAAAKAFLHMALDKCAVVGGNESR,not soluble
10,MLSRVRIGWLLLEDFFRMNEFEELLNSVSEVSTGDVVTAEVISVDNDQANVVIEGTGIEGVLTRRELTNDRDANVADLVKDGETLEVLVLRQVVGKDTDTVTYLVSKKRLEARKAWDKLVGREEEVVTVKGTRAVKGGLSVEFEGLRGFIPASMIDTRFVRNTEQFVGQEFDAKIKEVDPAENRFILSRREVVEAEAIEARKEVFSKLEVGSVVTGKVARLTSFGAFIDLGGVDGLVHVTELSHERNVSPKSVVSVGDEIEVKVLAIDEEAGRVSLSLKATTPGPWDGVEQKLAAGDVIEGKVKRLTDFGGFVEVLPGIDGLVHISQISHKRVENPKDVLSVGQDVTVKVLEVNADAERVSLSIKALEERPANAEGENNEKRQSRPRRPKRQEKRDYELPETQSGFSMADLFGDIEL,not soluble
11,MLSSPLRVAVVCVSNINRSMEAHSILRRKGLSVRSFGTESHVRLPGRRPNHPVVYDFATTYKEMYNDLLRKDRECYTHNGILHILGRNERIKPGPERFQECTEFFDVIFTCEERVYDTVVEDLCSREQQTFQPVHVINMDIKDTLEGAILGAFLICEICQCLQQSDDMEDSLEELLLQMEEKAGKSFLHTVCFYLEHHHHHH,soluble
12,MLSSTAIAKWQKINDVDYTWGPFKIYNISLFTETGEYKPQERPIMLTLRYNKPVDGRDFAISVAKSWANLGIALSEQNVVIERLRKILPDLKSGDALSYIALSDHGYFVLNDQVIEQEFNHEFNDAMLAIWLDPKVELSHKLITKKIEGAAQAVHYSAEYREKVTSSSEDLVSQEQRQQNLPNGTPSEATSLTEQEEREDDEKAPAISDAENDLRHSIDESAPQIVEPEQEIIPNVDPMPDYQLPVS,not soluble
13,MLSTGTKSLDSLLGGGFAPGVLTQVYGPYASGKTTLALQTGLLSGKKVAYVDTEGGFSPERLVQMAETRGLNPEEALSRFILFTPSDFKEQRRVIGSLKKTVDSNFALVVVDSITAHYRAEENRSGLIAELSRQLQVLLWIARKHNIPVIVINQVHFDSRTEMTKPVAEQTLGYRCKDILRLDKLPKPGLRVAVLERHRFRPEGLMAYFRITERGIEDVE,soluble
